Here are results for three molecules from patent publication US10499655B2, “Reagents and methods for inhibiting or disrupting biofilm” (priority 2015, dated 2019).

The test system of data set [1] is Pseudomonas aeruginosa. Briefly: MIC test strips on bacteria dispersed from a biofilm by PsIG versus planktonic bacteria. The class given is cell-based. To be noted: 24-hour biofilm treated with PsIG 1 hour; MIC read after 16 hours at 37 degrees centigrade. How it is done: Planktonic Pseudomonas aeruginosa may be cultured for 24 hours with shocking in LBNS medium, and 0.2 ml of such culture may be used as control. As shown in FIGS. 8(a) and 8(c), a control group have shown measurement of MIC values of TOB, CIP by a planktonic bacteria. FIGS. 8(b) and 8(d) have shown measurement of MIC values of TOB, CIP by bacteria cells dispersed from the biofilm after the treatment of the PsIG protein.

For data set [2], the system named is biofilm of Pseudomonas aeruginosa. Nature of the data set: Inhibition of biofilm formation, crystal violet staining, 96-well plate. Format: cell-based. The text has this:
(§1) The biomass of the biofilm has been detected by a crystal violet staining method. The method including: discarding cultures (bacteria that are not attached on wells.) in the wells, and washing three times. Then, the biofilm may be stained with 0.1% crystal violet, and washed three times, then the crystal violet combined in the biofilm may be dissolved with 30% acetic acid, and the value of OD560 thereof (for example, the concentration of the crystal violet) may be measured by a spectrophotometer to measure the biomass of the biofilm was measured. PAO1-derived PsI polysaccharide negative strain (PAO1, A psi) may be used as a negative control, and PAO1-derived PsI polysaccharide inducible strain (PAO1, PBAD-psI) (arabinose used as an inducer) may be used as positive control.
A fresh single colony of Pseudomonas aeruginosa on the LBNS plate may be inoculated in LBNS liquid medium, carried out shake culture at 200 rpm at 37 degrees centigrade for 12 hours, and then inoculated in Jensen's medium with 1% inoculum dose, at the same time, different concentrations of PsIG protein may be added. After static culture in a 96-well plate at 30 degrees centigrade for 24 hours, liquid cultures were discarded and the biofilm may be stained with the crystal violet, and biomass of the biofilm was detected, in which specific operations may refer to the steps in Example 1. […]

Data set [3] concerns formed biofilm of Pseudomonas aeruginosa. Nature of the data set: Disruption of formed biofilm, crystal violet staining. Format: cell-based.
Text: as §1
A fresh single colony of Pseudomonas aeruginosa on the LBNS plate may be inoculated in LBNS liquid medium, carried out shake culture at 200 rpm at 37 degrees centigrade for 12 hours, and then inoculated in Jensen's media with 1% inoculum dose, with static culture in a 96-well plate at 30 degrees centigrade for 24 hours. Cultures may be discarded and the biofilm (surface-attached bacteria) was washed with 0.8% physiological saline for three times. 100 μl Jensen's media containing 1 nM PsIG may be added into wells and the biofilm treated for 5 or 30 minutes. Then, biomass of the treated biofilm may be detected by the crystal violet staining method, in which specific operation steps of the crystal violet staining method may refer to Example 2.
At the same time, Jensen's media without addition of PsIG may be used as a control group.
A fresh single colony of Pseudomonas aeruginosa on the LBNS plate may be inoculated in LBNS liquid medium, carried out shake culture at 200 rpm at 37 degrees centigrade for 12 hours, and then inoculated in Jensen's media with 1% inoculum dose, and carried out static culture in a 96-well plate at 30 degrees centigrade for 24 hours. Cultures were discarded and the biofilm was washed with 0.8% physiological saline for three times. 100 μl Jensen's media containing 50 nM PsIG protein was added and the biofilm was treated for different times. Then, biomass of the treated biofilms may be tested by a crystal violet staining method, in which specific operation steps of the crystal violet staining method may refer to Example 2.

The test system of data set [4] is biofilm of Pseudomonas syringae. Nature of the data set: Inhibition of biofilm formation, crystal violet staining. Conditions: 50 nM PsIG. The class given is cell-based.
The test system of data set [5] is Pseudomonas aeruginosa. Briefly: Inhibitory zone on LBNS plate with filter paper. Format: cell-based. Conditions: 50 nM PsIG; 24 hours at 37 degrees centigrade. On the procedure: As shown in FIG. 9(a), four experimental groups may be set for buffer; 50 nM PsIG; tobramycin (TOB); combination of TOB and PsIG, respectively. Experiment 2:
As shown in FIG. 9(b), four experimental groups may be set for buffer; 50 nM PsIG; ciprofloxacin (CIP); combination of CIP and PsIG, respectively.

Data set [6] concerns Caco2. Conditions: PsIG treatment 12 hours. The text has this:
(§2) Cytotoxicity of a PsIG protein may be detected by human colon epithelial cell line Caco2 and HT-29.

In data set [7] the test system is HT-29. To be noted: PsIG treatment 12 hours.
Text: as §2

Data set [8] relates to PAO1 biofilm. Nature of the data set: Clearance of PsIG-treated biofilm by macrophages, CFU count. Format: cell-based, Pseudomonas aeruginosa. Conditions: biofilm treated with PsIG 1 hour, then macrophages 2 hours; versus controls without PsIG. How it is done:
The PAO1 biofilm cultured on glass coverslips for 24 hours was treated with PsIG and co-incubated with macrophages, and then scraped and resuspended in 1 ml of physiological saline to quantify colony formation unit (CFU). The mean and SD values of CFU obtained by three repeated experiments were shown in the figure and T test (*, P<0.01) was performed for different experimental groups.
The PAO1 biofilm cultured on glass coverslips for 24-hours may be treated with the PsIG protein for 1 hour, and then incubated with macrophages for 2 hours, and remaining biofilm may be scraped and resuspended in 1 ml of physiological saline for colony formation unit (CFU).

Data set [9] relates to biofilm of Pseudomonas aeruginosa on implants. Briefly: Mouse implant infection model. Format: in vivo. To be noted: mouse peritoneum, local treatment, 24 hours; 50 nM PsIG and/or 50 mg kg-1 tobramycin. How it is done:
FIG. 12 illustrates a mouse implant infections model. PsIG improves host clearance of implant biofilms and show combinatory effect with Tob in eradication of implant biofilms in vivo. The horizontal dashed line represents a detection limit of the experiment, which is shown as mean (*P<0.01) of the biofilm counts in five mice.
Implants coated by the biofilm of Pseudomonas aeruginosa may be inserted into mouse peritoneum and the following treatments may be performed locally: 50 nM PsIG treatment alone; 50 mg kg-1 tobramycin treatment alone; the 50 nM PsIG and the 50 mg kg-1 tobramycin co-treatment. After culture in vivo for 24 hours, mice may be sacrificed so as to harvest the implants, and the implants may be removed out and counted on LB plates after homogenization. The number of Pseudomonas aeruginosa on the implants may be tabulated with a format of CFU/ml.

Data set [10] has as its system L4-stage Caenorhabditis elegans. Nature of the data set: Toxicity of PsIG-dispersed biofilm bacteria to C. elegans. The class given is in vivo. To be noted: co-incubated 25 degrees centigrade, 48 hours; live/dead nematodes. How it is done: The experiment may be carried out by using C. elegans as a host model.
Two experimental groups may be set for Experimental group 1 and Experimental group 2, respectively.
Experiment group 1: the bacterial cells collected from a PsIG-treated bacterial biofilm (a biofilm of Pseudomonas aeruginosa) may be co-incubated with L4-stage Caenorhabditis elegans.
Experimental group 2: co-incubation the planktonic culture of Pseudomonas aeruginosa grown for 24 hours may be co-incubated L4-stage Caenorhabditis elegans.
Experimental group 1 and Experimental group 2 were placed in 96-well plates respectively and co-incubated at 25 degrees centigrade for 48 hours. […] Each group was repeated for three times, the results are expressed with a format of the mean value±SD value.

Data set [11] can be described thus: Degradation of PsI polysaccharide in vitro, immunoblotting. Format: biochemical, Pseudomonas aeruginosa. Conditions: 50 nM PsIG. From the text: Preparation and purification of PsI polysaccharide may be carried out with reference to published document (Molecular Microbiology 2009; 73:622-638, titled Genetic and biochemical analyses of the Pseudomonas aeruginosa PsI exopolysaccharide reveal overlapping roles for polysaccharide synthesis enzymes in PsI and LPS production, written by Byrd M S, Sadovskaya I, Vinogradov E et al.)
The standard curve may be prepared according to the following method: PsI polysaccharide prepared by the above method may be diluted 10 times with gradient and the PsI polysaccharide may be detected by immunoblotting.
To Solution 1 (PBS phosphate buffer), PsI polysaccharide and 50 nM of the PsIG protein obtained in Example 16 may be added to obtain Reaction system 1, the concentration of PsI polysaccharide in reaction system 1 may be 4 mg/ml, and the concentration of PsIG protein may be 50 nM. The eight same reaction systems 1 may be incubated at 20 degrees centigrade, 25 degrees centigrade, 30 degrees centigrade, 37 degrees centigrade, 40 degrees centigrade, 45 degrees centigrade, 50 degrees centigrade and 55 degrees centigrade for one hour, respectively, and then remaining PsI polysaccharide may be detected with a PsI polysaccharide antibody (the PsI polysaccharide antibody may be obtained by using PsI polysaccharide as immunogen) by immunoblotting. […]

Data set [12] concerns mouse macrophages (RAW264.7).

In the case of `O=C(O)c1cn(C2CC2)c2cc(N3CCNCC3)c(F)cc2c1=O` [ciprofloxacin], the “MIC values for bacteria dispersed from biofilms by PsIG compared with planktonic cells” value in data set [1] is reported as “lower”.

Take `NC[C@H]1O[C@H](O[C@H]2[C@H](O)[C@@H](O[C@H]3O[C@H](CO)[C@@H](O)[C@H](N)[C@H]3O)[C@H](N)C[C@@H]2N)[C@H](N)C[C@@H]1O` [tobramycin]: the “MIC values for bacteria dispersed from biofilms by PsIG compared with planktonic cells” value in data set [1] is “lower”.

B1: PsIG protein: Protein from Pseudomonas aeruginosa PAO1, purified PsIG (31-442) of SEQ ID NO.: 2, expressed in E. coli, 47 kDa (protein, listed as Pseudomonas aeruginosa)
chain: EIQVLKAPRAVVWKDFLGVNAQFLWFSPERYNKQIDRLQDLGLEWVRLDLHWDRLETAEDQYQLASLDQLVKDLEARQLKSVFYLVGSARFITTAPFYSPFQDQYPPRDPEVFARRMAMLSQRYPSVAAWQVWNEPNLIGFWRPKADPEGYAKLLQASTIALRMVDPEKPVVSAGMAFFSEMPDGRTMFDALGHLGVESLGTIATYHPYTQLPEGNYPWNLDFVSHANQINRALRNAGVPAIWSTEWGWSAYKGPKELQDIIGVEGQADYVLRRLALMSALDYDRIFLFTLSDLDQRASVRDRDYGLLDLDANPKPVYLALQRFLKVTGPKLRPADPPVTEDLPDGSFSIGWTREDGRNVWLFWSARGGNVRLPKLKEATLHDPLSGKVTPLSGSDGLEVPVKSSLQMLVWE
In the case of B1, in data set [2] (PsIG protein at 1 nM, static culture 30 degrees centigrade, 24 hours), the “inhibitory rate on biofilm formation” value is reported as 50%. Moreover, in data set [2] (concentration l0nm-50nm, static culture 24 hours), the “inhibition of formation of the biofilm” value was “significantly inhibit”. The “reduction of biomass of formed biofilm” value in data set [3] (1 nM PsIG, treated 30 minutes, 24-hour biofilm) stood at 50%; in data set [3] (50 nM PsIG, treated 10 minutes, 24-hour biofilm) it was 50%. In addition, the “effect on biomass of formed biofilm” value in data set [3] (1 nM PsIG, treated five minutes, 24-hour biofilm) was “no effect”; in data set [3] (50 nM PsIG, treated 30 minutes, 24-hour biofilm) it was “reduced to a level similar to the PsI polysaccharide-negative strain”; in [3] (50 nM PsIG, treated five minutes, 24-hour biofilm) it was “significantly reduced”; in data set [3] (50 nM PsIG, treated more than 30 minutes) it was “no more significant reduction”. In addition, the “inhibitory effect on biofilm” value in data set [4] was “same inhibitory effects”. The “inhibitory zone, PsIG alone” value in [5] was “does not produce inhibitory zone”. Further, the “effect on activity of colon epithelial cells (MTT)” value in [6] and in [7] was “no effect” in each case. For the same molecule, the “number of remaining bacteria of the biofilm” value in data set [8] is on record as “least”. Moreover, the “number of bacteria on the implants” value in data set [9] was “≈ 10^3 CFU/mL”. Moreover, the “toxicity of PsIG-dispersed biofilm bacteria versus planktonic bacteria” value in data set [10] is given as “no significant difference in toxicity”. For the same molecule, the “temperature of highest degradation rate of PsI polysaccharide” value in data set [11] (4 mg/ml PsI, one hour) is listed as 45 degrees centigrade. Moreover, the “reduction of amount of PsI polysaccharide compared with untreated control” value in data set [11] (30 degrees centigrade, 1 hour) worked out at 75%. For the same molecule, the “toxic effects on macrophages” value in data set [12] is recorded as “not shown any toxic effects”.
